These results are taken from US20220339279A1, “RECOMBINANT PROTEINS, COMPOSITIONS, VECTORS, KITS, AND METHODS FOR […], AND TESTING FOR EXPOSURE TO, SEVERE ACUTE RESPIRATORY SYNDROME CORONAVIRUS 2” (Board of Regents of the University of Nebraska, priority 2021, published 2022).

One may read the Kd as the free concentration of one partner at which half of the binding sites on the other are occupied at equilibrium, for simple one-to-one binding.

Assay [1] deals with hACE2 on human bronchial epithelial Calu-3 cells (human) (UniProt Q9BYF1).
The target in assay [2] is recombinant hACE2-AviTag protein from 293T cells (Acro Biosystems) (human) (UniProt Q9BYF1). The experiment in a line: SPR, hACE2-AviTag captured on chip, spike construct as analyte. On the technique in general: SPR reads the build-up and loss of mass on a sensor chip optically.

In assay [1], “S-Ecto-eGFP (other; other documents disagree on this pair)” yielded a fold median GFP fluorescence intensity (MFI) over GFP-His tag control of 2.6 fold. Moreover, the Kd in assay [2] turned out to be 0.0551 µM.
